# Test results: US20140120555A1 (PIERRE FABRE MEDICAMENT, published 2014)
# T1: Recombinant mouse FcγRI [CD64], Gln25-Pro297 with C-terminal 6-His tag (mouse, UniProt P26151 25-297)
# T1 construct: range 25-297; Soluble form bought from R&D Systems; also called m-FcγRI
# T1 sequence: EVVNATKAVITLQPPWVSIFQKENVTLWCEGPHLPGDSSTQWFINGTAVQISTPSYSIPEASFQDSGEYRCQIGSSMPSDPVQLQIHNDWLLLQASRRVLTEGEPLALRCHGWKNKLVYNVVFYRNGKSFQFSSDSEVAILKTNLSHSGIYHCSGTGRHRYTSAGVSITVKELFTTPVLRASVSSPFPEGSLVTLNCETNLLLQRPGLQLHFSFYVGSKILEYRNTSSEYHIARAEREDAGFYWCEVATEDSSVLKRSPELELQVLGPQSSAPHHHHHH
# T2: Recombinant mouse FcγRIII [CD16], Ala31-Thr215 with C-terminal 10-His tag (mouse, UniProt P08508 31-215)
# T2 construct: Soluble form bought from R&D Systems; also called m-FcγRIII
# T2 sequence: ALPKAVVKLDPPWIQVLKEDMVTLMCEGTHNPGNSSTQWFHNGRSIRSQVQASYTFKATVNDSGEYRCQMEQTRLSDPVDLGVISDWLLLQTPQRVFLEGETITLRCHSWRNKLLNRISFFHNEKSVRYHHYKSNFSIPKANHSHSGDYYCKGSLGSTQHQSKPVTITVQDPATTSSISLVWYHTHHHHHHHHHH
# Columns and labels:
# [1] = target: T3, Recombinant human FcγRI [CD64], Gln16-Pro288 with C-terminal 6-His tag (human, UniProt P12314 16-288); assay: SPR (Biacore X), Mab amine-coupled on CM4 chip, h-FcγRI as analyte, Langmuïr model
# T3 construct: range 16-288; Soluble form bought from R&D Systems; also called h-FcγRI
# [2] = target: T4, Recombinant human FcγRIIIA variant V [CD16a], Gln17-Gln208 with C-terminal 6-His tag (human, UniProt P08637 17-208); assay: SPR (Biacore X): h-FcγRIIIA injected over c515H7 Mab immobilized on a CM4 sensorchip; heterogeneous ligand model, major component (81%)
# T4 construct: range 17-208; 'variant V' is given without a position, so no substitution is written; also called h-FcγRIIIA
# Experimental: (§1) 2017 RU of c515H7 Mab were immobilized using the amine coupling kit chemistry on the second flowcell (FC2) of a CM4 sensorchip. The first flowcell (FC1) activated by NHS and EDC mixture and des-activated by ethanolamine served as the reference surface to check and subtract the non specific interaction between the analyte (Fc gamma receptors) and the sensorchip matrix.
# (§2) The kinetic experiments were carried out at 25° Celsius at a flow rate of 30 μl/min. The HBS-EP buffer was used either as the running buffer or for the preparation of analyte solutions. The analyte solutions were injected during 90 seconds (association phase) with a 90 seconds delay (dissociation phase). An injection of running buffer as analyte was used as a double reference. All the sensorgrams were corrected by this double reference sensorgram.
# (§3) After each injection of the analyte, the sensorchip was regenerated by injection of 20 mM NaOH, 75 mM NaCl solution.
# [3] = target: T3, Recombinant human FcγRI [CD64], …; assay: SPR (Biacore X): h-FcγRI injected over c515H7 Mab immobilized on a CM4 sensorchip; Langmuir model
# Experimental: as §1, §2, §3
# [4] = target: T1, Recombinant mouse FcγRI [CD64], …; assay: SPR (Biacore X): m-FcγRI injected over c515H7 Mab immobilized on a CM4 sensorchip; heterogeneous ligand model, minor component (19%)
# Experimental: as §1, §2, §3
# [5] = target: T4, Recombinant human FcγRIIIA variant V …; assay: SPR (Biacore X), Mab on CM4 chip, h-FcγRIIIA as analyte, heterogeneous ligand model, minor component
# [6] = target: T4, Recombinant human FcγRIIIA variant V …; assay: SPR (Biacore X), Mab on CM4 chip, h-FcγRIIIA as analyte, heterogeneous ligand model, major component
# [7] = target: T1, Recombinant mouse FcγRI [CD64], …; assay: SPR (Biacore X), steady-state analysis, response at end of association versus m-FcγRI concentration
# [8] = target: T4, Recombinant human FcγRIIIA variant V …; assay: SPR (Biacore X), steady-state analysis, response at end of association versus h-FcγRIIIA concentration
# [9] = target: T2, Recombinant mouse FcγRIII [CD16], …; assay: SPR (Biacore X), Mab on CM4 chip, m-FcγRIII as analyte, Langmuïr model; lower of the two Langmuïr-fit values
# Experimental: as §1, with “1964” for “2017”, “hz515H7VH1D76NVL2” for “c515H7”
# as §2
# Using the Langmuïr model the constant of dissociation was around 17 and 18 nM.
# [10] = target: T4, Recombinant human FcγRIIIA variant V …; assay: SPR (Biacore X): h-FcγRIIIA injected over hz515H7VH1D76NVL2 Mab immobilized on a CM4 sensorchip; heterogeneous ligand model, major component (79%)
# Experimental: as §1, with “1964” for “2017”, “hz515H7VH1D76NVL2” for “c515H7”
# as §2
# Sensorgrams obtained with h-FcγRIIIA [FIG. 16] were clearly not fitted by the Langmuïr model (Chi2/Rmax>20%). […] According to this model, the hz515H7VH1D76NVL2 Mab Fc domain may be regarded as a mixture of two components. […] According to the literature, the heterogeneity observed with h-FcγRIIIA was probably linked to the glycosylation heterogeneity on the Mab Fc domain.
# T4 sequence (P08637 other isoform, or with tags, fused parts or gaps mutant limits assumed, form in doubt): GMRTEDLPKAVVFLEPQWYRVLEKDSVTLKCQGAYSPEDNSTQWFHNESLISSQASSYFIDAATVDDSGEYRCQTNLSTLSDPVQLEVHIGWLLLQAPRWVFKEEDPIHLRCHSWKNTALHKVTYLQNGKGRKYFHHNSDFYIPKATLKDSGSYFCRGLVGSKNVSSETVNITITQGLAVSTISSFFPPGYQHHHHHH
# T3 sequence (P12314 other isoform, or with tags, fused parts or gaps limits assumed): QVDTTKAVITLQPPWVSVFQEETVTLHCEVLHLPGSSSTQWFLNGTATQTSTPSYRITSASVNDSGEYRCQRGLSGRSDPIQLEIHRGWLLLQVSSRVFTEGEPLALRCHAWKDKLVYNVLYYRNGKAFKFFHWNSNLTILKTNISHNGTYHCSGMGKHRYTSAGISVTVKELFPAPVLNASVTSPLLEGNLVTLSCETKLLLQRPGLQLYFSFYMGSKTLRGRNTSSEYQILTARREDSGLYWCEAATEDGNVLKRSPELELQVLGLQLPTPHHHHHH
Kd [1] [nM],Kd [2] [nM],koff [2] [s⁻¹],kon [2] [M⁻¹ s⁻¹],Kd [3] [nM],koff [3] [s⁻¹],kon [3] [M⁻¹ s⁻¹],Kd [4] [nM],koff [4] [s⁻¹],kon [4] [M⁻¹ s⁻¹],Kd [5] [nM],Kd [6] [nM],Kd [7] [nM],Kd [8] [nM],Kd [9] [nM],Kd [10] [nM],koff [10] [s⁻¹],kon [10] [M⁻¹ s⁻¹],Binder
1.2,395,0.185,468000,1.22,0.000599,493000,34.6,0.0387,1.12e+06,32 to 37,380 to 450,107,160,,,,,"chimeric antibody c515H7 (antibody, human IgG1, kappa, Human IgG1/kappa constant domains; also called c515H7 Mab; chimeric 515H7) heavy: not shown light: DIVMSQSPSSLAVSAGEKVTMSCKSSQSLFNSRTRKNYLAWYQQKPGQSPKLLIYWASARDSGVPARFTGSGSETYFTLTISRVQAEDLAVYYCMQSFNLRTFGGGTKLEIKRTVAAPSVFIFPPSDEQLKSGTASVVCLLNNFYPREAKVQWKVDNALQSGNSQESVTEQDSKDSTYSLSSTLTLSKADYEKHKVYACEVTHQGLSSPVTKSFNRGEC"
0.9,,,,,,,,,,27 to 32,300 to 350,95,176,~17,325,0.187,575000,"humanized antibody Hz515H7 VH1 D76N VL2 (antibody, human IgG1, kappa, IgG1/kappa; also called hz515H7VL2; hz515H7-1) heavy: not shown light: DIVMTQSPSSLAVSLGERATMSCKSSQSLFNSRTRKNYLAWYQQKPGQSPKLLIYWASARDSGVPARFTGSGSETYFTLTISRVQAEDLAVYYCMQSFNLRTFGQGTKVEIKRTVAAPSVFIFPPSDEQLKSGTASVVCLLNNFYPREAKVQWKVDNALQSGNSQESVTEQDSKDSTYSLSSTLTLSKADYEKHKVYACEVTHQGLSSPVTKSFNRGEC"
